# Data reported in the RNAGym collection of RNA variant scans (doi:10.1073/pnas.2313332121).
# B1: TPR t1 (parent)
# chain: GACCAAUCUGCCCUCAGAGCUCGAGAACAUCUUCGGAUGCAGAGGAGGCAGGCUUCGGUGGCGCGAUAGCGCCAACGUCCUCAACCUCCAAUGCAUCCCACCACAUGAUGAUGCCUGAAGAGCCUUGGUUUUUUG
# Variants of: B1
# Assay: polymerase ribozyme fitness, log enrichment relative to wild type (log ratio); higher = more active; in vitro selection for triplet polymerase activity
# Summary of the method: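 Mutant libraries of both subunits of a heterodimeric triplet polymerase ribozyme were PCR-built, transcribed, and selected once in triplicate, with frozen incubation at −7 °C and capture of gel-excised extended constructs on streptavidin beads before RT-PCR. Illumina sequencing of input and output libraries was filtered to genotypes with ≥10 input reads and ≥1 read per output. Fitness is the logarithm of genotype enrichment over wild-type enrichment, using inverse-variance-weighted replicate averages. The logarithm is base 2.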
row,Variant,polymerase ribozyme fitness (log ratio)
1,GACCAAACUGCCCUCAGAGCUCGAGAACAUCUUCGGAUGCAGAGGAGGCAGGUUUCGGUGGCGCGAUAGCGCCAACGUCCUCAACCUCCAAUGCAUCCCACCACAUGAUGAUGCCUGAAGAGCCUUGGUUUUUUG,-0.0186
2,GACCAAACUGCCCUAAGAGCUCGAGAACAUCUUCGGAUGCCGAGGAGGCAGGCUUCGGUGGCGCGAUAGUGCCAACGUCCUCAACCUCCAAUGCAUCCCACCACAUGAUGAUGCCUGAAGAGCCUUGGUUUUUUG,-2.92
3,GACCAAACUGCCCUCAGAGCUCGAGAACAUCUUCGGGUGCAGAGGAGGCAGACUUGGGUGGCGCGAUAGCGCCAACGUCCUCAACCUCCAAUGCAUCCCACCACAUGAUGAUGCCUGAAUAGCCUUGGUUUUUUG,-0.68
4,GACCAAACUGCCCUCAGAGCUCGAGAACAUCUUCGGAUGCAGAGGAGGCUGGCUUCGGUGGCGCGAUAGCGCCAACAUCCUCAACCUCCAAUGCAUCCCACCACAUGAUGAUGCCUGAAGAGCCUUGGUUUUUUG,-1
5,GACCAAACUGCACUCAGAGCUCGAGAAGAUCUUCGGAUGCAGAGGAGGCAGGCUUCGAUGGCGCGAUAGCGCCAACGUCCUCAACCGCCAAUGCAUCCCACCACAUGAUGAUGCCUGAAUAGCCUUGGUUUUUUG,-1.72
6,GACCAAACUGCGCUCAGCGCUCGAGAACAUCUUCGGAUGCAGAGAAGAAAGGCUUCGGUGGCGCGAUAGCGCCGACGUCCUCAAUCUCCAAUGCAUCCCACCACAUGAUGAUGCCUGAAGAGCCUUGGUUUUUUG,-5.35
7,GACCAAACUGCCCUCAGAGCUCGAGAACAUCUUCGGAUGCAGAGGAGGUAGGUUUCGGAGGCGCGAUAGCGCCAAAGUCCUCAACCUCCAAUGCAUCCCACCACAUGAUGAUGCCUGAAGAGCCUUGGUUUUUUG,-0.656
8,GACCAAAGUGCCCUCAGAGCUCGAGAACAUCUUCGGAUGCAGCGGAGGCAGGAUUCGGUGGCGCGAUAGCGCCAACAUCCUCAACCUCCAAUGCAUCCCACCACAUGAUGAUGCCUGAAGAGCCUUGGUUUUUUG,-2.07
9,GACCAAACUGCCCUCAGAGCUCGAGAACAUCUUCGGAUGCAGAGGAGGCAGGCUUAGGUGGCGCGAUAGCGCCAACGUCCUCAACCUCCAAUGCAUCCCACCACAUGAUGAUGCCUGAAGGGCCUUGGUUUUUUG,1.68
10,GACCAAACUGCCCUCAGAGCUCGAGAACAUCUUCGGAUGCAGAGGAGGCAGGGUUCGGUGGCGCGAUAGCGCCAACGUCCUCGCCCUCCAAUGCAUCCCACCACAUGAUGAUGCCUGAAGAGCCUUGGUUUUUUG,-0.766
11,GACCAAAAUGGCCUCAGAGCUCGAGAACAUCUUCGGAUGCAGAGGAUGCAGGCUUCUGUGGUGCGAUAGCGCCAACGUCCUCAAACUCCAAUGCAUCCCACCACAUGAUGAUGCCUGAAGAGCCUUGGUUUUUUG,-1.82
12,GACCAAACUGCCCUCAGAGAUCGAGGACAUCUUCGGAUGCAGAGGAGGCAGGCUUCGGUGGCGCGAUAGCGCCAACGUCCUUAACCUCCAAUGCAUCCCACCACAUGAUGAUGCCUGAAGAGCCAUGGUUUUUUG,-3.24
13,GACCAAACUGACCUCAGAGCUCGAGAACAUCUUCGGAUGUAGAGGAGGCAGGCUUCGGUGGCGCGAUAGCGCCAACGUCCUCAACCUCCAAUCCAUCCCACCACAUGAUGAUGCCUGAUGAUCCUUGGUUUUUUG,0.441
14,GACCAAAGUGCCCUCCGAGCUCGAGAACAUCUUCGGAUGCAGAGGUGGCAGGCUUCGGUGGCGCGAUAGAGCCAACGUCCUCAACCUCCAAUGCAUCCCACCACAUGAUGAUGCCUGAAGAGCCUUGGUUUUUUG,-3.78
15,GACCAAACUGCCCUCAGAGCUCGAGAACAUCUUCGGAUGCUGAGGAGGCAGGCUUCGGUGGCGCGAUAGCGACAACGUCCUCAAUCUCCAAUGCAUCCCACCACAUGAUGAUGCCUGAAGAGCCUUGGUUUUUUG,-0.761
16,GACCAAACUGCUCUCAGAGCUCGAGAACAUCUUCGGAUGCAGAGGUGGCAGGCUUCGAUGGCGCGAUAGAGCCAACGUCCUCAACCUCCAAUGCAUCCCACCACAUGAUGAUGCCUGAAGAGCCUUGGUUUUUUG,-1.97
17,GACCAAACUGCGCUCAUAGCUCGAGAACAUCUUCGGAUGCAGAGGAGGCAGGCUUCGGUGGCGCGAUAGCGCCAACGUCCUCAACCUCCAAUGCAUCCCACCACGUGAUGAUGCCUGAACAGCCUUGGUUUUUUG,-4.05
18,GACCAAACUGCCCUCAGAGCUCGAGAACAUCUUCGGAUGCUGAGGAGGCAGGCUUCGGUGGCGCGAUAGCACCAACGUCCUCAAUCACCAAUGCAUCCCACCACAUGAUGAUGCCUGAAGAGCCUUGGUUUUUUG,-4.06
19,GACCAAACUGCCCUCAGAGCUCGAGAACAUCUUCGGAUGCAGAGGAGGCAGGCUUCGGUGGGGCGAUAGCGCCAACGUCCUCAACUUCCAAUGCAUCCCACCACAUGAUGAUGCCUGAAGAGCCUUGGUUUUUUG,-1.24
20,GACCAAACUGCCCUCAGAGCUCGAGAACAUCUUCGGAUGUAGAGGAGGCAGGCUUCGGUGGCGCGAUAGCGCCAACGUCCUCAAGCUCCAAUGCAUCCCACCAUAUGAUGAUGCCUGAAGAGCCUUGGUUUUUUG,-2.31
21,GACCAAACUGCACUCAGAGAUCGAGAACAUCUUCGGAUGCAUAGGAGGCAGGCUUCGGUGGCGCGAUAGCGCCAACGUCCUCAACCUCCAAUGCAUCCCACCACAUGAUGAUGCCUGAAGAGCCUUGGUUUUUUG,-3.2
